According to publication PMC6152903 (Cell reports, 2018):

Legend:
[1] = target: the molecule itself; experiment: SDS-PAGE without reducing reagent
co-IP = target: the molecule itself; experiment: co-IP

Protein | stoichiometry N [1] | stoichiometry N (co-IP)
endogenous ZMYND8 (natural protein) MDISTRSKDPGSAERTAQKRKFPSPPHSSNGHSPQDTSTSPIKKKKKPGLLNSNNKEQSELRHGPFYYMKQPLTTDPVDVVPQDGRNDFYCWVCHREGQVLCCELCPRVYHAKCLRLTSEPEGDWFCPECEKITVAECIETQSKAMTMLTIEQLSYLLKFAIQKMKQPGTDAFQKPVPLEQHPDYAEYIFHPMDLCTLEKNAKKKMYGCTEAFLADAKWILHNCIIYNGGNHKLTQIAKVVIKICEHEMNEIEVCPECYLAACQKRDNWFCEPCSNPHPLVWAKLKGFPFWPAKALRDKDGQVDARFFGQHDRAWVPINNCYLMSKEIPFSVKKTKSIFNSAMQEMEVYVENIRRKFGVFNYSPFRTPYTPNSQYQMLLDPTNPSAGTAKIDKQEKVKLNFDMTASPKILMSKPVLSGGTGRRISLSDMPRSPMSTNSSVHTGSDVEQDAEKKATSSHFSASEESMDFLDKSTASPASTKTGQAGSLSGSPKPFSPQLSAPITTKTDKTSTTGSILNLNLDRSKAEMDLKELSESVQQQSTPVPLISPKRQIRSRFQLNLDKTIESCKAQLGINEISEDVYTAVEHSDSEDSEKSDSSDSEYISDDEQKSKNEPEDTEDKEGCQMDKEPSAVKKKPKPTNPVEIKEELKSTSPASEKADPGAVKDKASPEPEKDFSEKAKPSPHPIKDKLKGKDETDSPTVHLGLDSDSESELVIDLGEDHSGREGRKNKKEPKEPSPKQDVVGKTPPSTTVGSHSPPETPVLTRSSAQTSAAGATATTSTSSTVTVTAPAPAATGSPVKKQRPLLPKETAPAVQRVVWNSSSKFQTSSQKWHMQKMQRQQQQQQQQNQQQQPQSSQGTRYQTRQAVKAVQQKEITQSPSTSTITLVTSTQSSPLVTSSGSMSTLVSSVNADLPIATASADVAADIAKYTSKMMDAIKGTMTEIYNDLSKNTTGSTIAEIRRLRIEIEKLQWLHQQELSEMKHNLELTMAEMRQSLEQERDRLIAEVKKQLELEKQQAVDETKKKQWCANCKKEAIFYCCWNTSYCDYPCQQAHWPEHMKSCTQSATAPQQEADAEVNTETLNKSSQGSSSSTQSAPSETASASKEKETSAEKSKESGSTLDLSGSRETPSSILLGSNQGSDHSRSNKSSWSSSDEKRGSTRSDHNTSTSTKSLLPKESRLDTFWD | 2 | –
FLAG-ZMYND8 (Sf9) (natural protein) MHPQSLAEEEIKTEQEVVEGMDISTRSKDPGSAERTAQKRKFPSPPHSSNGHSPQDTSTSPIKKKKKPGLLNSNNKEQSELRHGPFYYMKQPLTTDPVDVVPQDGRNDFYCWVCHREGQVLCCELCPRVYHAKCLRLTSEPEGDWFCPECEKITVAECIETQSKAMTMLTIEQLSYLLKFAIQKMKQPGTDAFQKPVPLEQHPDYAEYIFHPMDLCTLEKNAKKKMYGCTEAFLADAKWILHNCIIYNGGNHKLTQIAKVVIKICEHEMNEIEVCPECYLAACQKRDNWFCEPCSNPHPLVWAKLKGFPFWPAKALRDKDGQVDARFFGQHDRAWVPINNCYLMSKEIPFSVKKTKSIFNSAMQEMEVYVENIRRKFGVFNYSPFRTPYTPNSQYQMLLDPTNPSAGTAKIDKQEKVKLNFDMTASPKILMSKPVLSGGTGRRISLSDMPRSPMSTNSSVHTGSDVEQDAEKKATSSHFSASEESMDFLDKSTASPASTKTGQAGSLSGSPKPFSPQLSAPITTKTDKTSTTGSILNLNLDRSKAEMDLKELSESVQQQSTPVPLISPKRQIRSRFQLNLDKTIESCKAQLGINEISEDVYTAVEHSDSEDSEKSDSSDSEYISDDEQKSKNEPEDTEDKEGCQMDKEPSAVKKKPKPTNPVEIKEELKSTSPASEKADPGAVKDKASPEPEKDFSEKAKPSPHPIKDKLKGKDETDSPTVHLGLDSDSESELVIDLGEDHSGREGRKNKKEPKEPSPKQDVVGKTPPSTTVGSHSPPETPVLTRSSAQTSAAGATATTSTSSTVTVTAPAPAATGSPVKKQRPLLPKETAPAVQRVVWNSSSKFQTSSQKWHMQKMQRQQQQQQQQNQQQQPQSSQGTRYQTRQAVKAVQQKEITQSPSTSTITLVTSTQSSPLVTSSGSMSTLVSSVNADLPIATASADVAADIAKYTSKMMDAIKGTMTEIYNDLSKNTTGSTIAEIRRLRIEIEKLQWLHQQELSEMKHNLELTMAEMRQSLEQERDRLIAEVKKQLELEKQQAVDETKKKQWCANCKKEAIFYCCWNTSYCDYPCQQAHWPEHMKSCTQSATAPQQEADAEVNTETLNKSSQGSSSSTQSAPSETASASKEKETSAEKSKESGSTLDLSGSRETPSSILLGSNQGSDHSRSNKSSWSSSDEKRGSTRSDHNTSTSTKSLLPKESRLDTFWD | – | 2
